Laboratory results from publication doi:10.1101/2022.11.09.515855.
Where two headings read alike, the source gives them in different places.

Tests used:
[1] = target: T1, Gac (C-terminal domain of GyrA, recombinant) (Borrelia burgdorferi B31) (UniProt O51396); assay: competition
T1 sequence: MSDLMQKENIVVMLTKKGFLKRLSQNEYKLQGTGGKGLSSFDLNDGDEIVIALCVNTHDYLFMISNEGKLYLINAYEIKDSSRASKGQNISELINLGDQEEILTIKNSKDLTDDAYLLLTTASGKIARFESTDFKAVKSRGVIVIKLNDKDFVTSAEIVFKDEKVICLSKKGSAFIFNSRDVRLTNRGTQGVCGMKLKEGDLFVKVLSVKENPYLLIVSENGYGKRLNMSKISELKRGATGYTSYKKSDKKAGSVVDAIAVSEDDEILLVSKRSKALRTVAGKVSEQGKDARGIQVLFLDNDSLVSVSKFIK

[2] = target: T1, Gac (C-terminal domain of GyrA, recombinant) (Borrelia burgdorferi B31); assay: competition; remark: listed apart in the source

Substance	binding signal (fold reduction of shift) [1]	binding signal (fold reduction of shift) [2]	binding signal (fold change of shift) [1]
Ip89 ospC operator/promoter unlabeled	2	> 8	–
B31 ospC operator/promoter unlabeled	2.6	–	–
empty pCR2.1 amplicon	–	–	< 1.3
